How the values were obtained:
MMP-14 [1] = target: T1, MMP-14 (Homo sapiens, UniProt P50281); assay: Selection and phage ELISA screening of anti-MMP-14 Fabs; assay type: binding; settings: Fab from FAB310 phage display library
Outline: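 Phage ELISA screened 95 clones from each of rounds 2 and 3 against biotinylated MMP-14 (1 μg/ml) captured on streptavidin, in TRIS/CaCl2/NaCl pH 7.5. The clones came from Fab library selections on biotinylated MMP-14, either free or TIMP-2-complexed (500 nM round 1, 100 nM later rounds). Elution used 2.5 μM TIMP-2 followed by TEA.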

MMP-14 [2] = target: T1, MMP-14; assay: IC50 for MMP-14 inhibition by Fabs and IgGs; assay type: biochemical; settings: Fab
Outline: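 Cleavage of the fluorogenic substrate Mca-Pro-Leu-Ala-Cys(Mob)-Trp-Ala-Arg-Dap(Dnp)-NH2 was measured without and with increasing Fab or IgG concentrations. IC50 is the binding-protein concentration that inhibits 50% of MMP-14 activity.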

MMP-16 [3] = target: T2, MMP-16 (Homo sapiens, UniProt P51512); assay: Cross-reactivity of anti-MMP-14 IgGs, enzymatic activity: MMP-16; assay type: biochemical; settings: 1 μM anti-MMP-14 IgG
Method: The cross-reactivity of exemplary anti-MMP-14 IgGs and Fabs with other human MMPs and TACE (TNF-alpha converting enzyme) was examined. MMP and TACE enzymatic activity was monitored in the absence and presence of 1 μM anti-MMP-14 IgG antibody. Inhibition (Y) of activity ranged from approximately 50-80% of the reaction rate observed in the absence of antibody. “X” indicates no inhibition was observed. Cross-reactivity was not determined for MMP-17 because protein activity could not be detected.
For the studies summarized in Table 12, six anti-MMP-14 IgGs were selected for cross-reactivity testings: M0043-G02, M0040-A06, M0037-D01, M037-C09, M0038-F01, M0033-H07.

MMP-16 [4] = target: T2, MMP-16; assay: Cross-reactivity of Fabs and IgGs with MMP-16 (Example 8); assay type: biochemical; set-up: key to MMP-16 (cross-reactivity, class symbol): X: Does not inhibit MMP-16 at [I] = 100 nM level; settings: 5 nM MMP16, 30 minutes at 30° C., 10 μM substrate
Method: For the studies summarized in Tables 13 and 14, 100 nM anti-MMP-14 Fab/IgG were incubated with 5 nM MMP16 for 30 minutes at 30° C., 10 μM of substrate was added, and the MMP-16 activity was measured.

MMP-16 [5] = target: T2, MMP-16; assay: Cross-reactivity of Fabs with MMP-16 (Example 9); assay type: biochemical; set-up: key: X: Do not inhibit MMP-16 or MMP-24 at [I] = 100 nM level; Y: partially inhibit at [I] = 100 nM level; settings: Fab, 100 nM final inhibitor concentration, 5 nM MMP-16
Method: (§1) For the studies summarized in Table 15, 1 μM of anti-MMP-14 Fab/IgG (100 nM final inhibitor concentration) were incubated with 5 nM of MMP-16 or 5 nM of MMP-24 for 30 minutes at 30° C., 10 μM of substrate was added, and the MMP-16 activity was measured.

MMP-24 = MMP-24 (Homo sapiens, UniProt Q9Y5R2); assay: Cross-reactivity of Fabs with MMP-24 (Example 9); assay type: biochemical; set-up: key to MMP-24 (cross-reactivity, class symbol): X: Do not inhibit MMP-16 or MMP-24 at [I] = 100 nM level; Y: partially inhibit at [I] = 100 nM level; settings: Fab, 100 nM final inhibitor concentration; 5 nM MMP-24
Method: as §1

T2 sequence (P51512 120-607): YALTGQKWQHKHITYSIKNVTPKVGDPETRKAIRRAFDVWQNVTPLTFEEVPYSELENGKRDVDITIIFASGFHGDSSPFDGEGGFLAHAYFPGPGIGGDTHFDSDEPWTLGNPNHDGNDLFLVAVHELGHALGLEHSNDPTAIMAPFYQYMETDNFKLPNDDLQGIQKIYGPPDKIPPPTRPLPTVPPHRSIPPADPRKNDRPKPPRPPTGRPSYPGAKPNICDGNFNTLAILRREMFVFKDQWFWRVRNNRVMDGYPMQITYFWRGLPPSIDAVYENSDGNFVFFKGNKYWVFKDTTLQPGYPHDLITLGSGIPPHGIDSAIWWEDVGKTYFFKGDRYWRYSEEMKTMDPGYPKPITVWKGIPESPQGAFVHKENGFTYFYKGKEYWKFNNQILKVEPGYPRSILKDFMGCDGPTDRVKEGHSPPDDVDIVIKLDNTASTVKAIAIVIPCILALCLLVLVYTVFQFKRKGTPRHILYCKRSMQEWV
Sequence of MMP-24 (Q9Y5R2 156-645): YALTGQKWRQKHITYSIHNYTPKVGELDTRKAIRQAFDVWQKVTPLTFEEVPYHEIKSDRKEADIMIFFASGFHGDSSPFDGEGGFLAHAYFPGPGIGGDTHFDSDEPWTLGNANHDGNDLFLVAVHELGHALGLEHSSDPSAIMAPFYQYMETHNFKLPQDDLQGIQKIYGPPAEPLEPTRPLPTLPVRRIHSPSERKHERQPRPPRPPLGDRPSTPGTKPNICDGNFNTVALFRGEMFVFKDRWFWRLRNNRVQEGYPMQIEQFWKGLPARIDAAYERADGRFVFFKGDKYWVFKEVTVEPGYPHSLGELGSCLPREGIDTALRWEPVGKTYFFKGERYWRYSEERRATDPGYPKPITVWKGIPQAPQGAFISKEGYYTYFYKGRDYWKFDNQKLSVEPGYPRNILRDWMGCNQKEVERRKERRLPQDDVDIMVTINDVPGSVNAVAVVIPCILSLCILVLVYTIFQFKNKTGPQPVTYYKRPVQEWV

bind to human MMP-14 (MMP-14 [1]) | bind to and inhibit human MMP-14 (MMP-14 [2]) | MMP-16 (cross-reactivity, class symbol) (MMP-16 [4]; Fab 100 nM) | MMP-16 (cross-reactivity, class symbol) (MMP-16 [4]; IgG 100 nM) | MMP-16 (cross-reactivity, class symbol) (MMP-16 [5]) | MMP-24 (cross-reactivity, class symbol) (MMP-24) | MMP-16 inhibition (MMP-16 [4]; Fab 100 nM) | MMP-16 inhibition (MMP-16 [4]; IgG 100 nM) | MMP-24 inhibition (MMP-24) | Molecule | Cross reactivity: inhibition of MMP-16 activity (MMP-16 [3])
bind to human MMP-14 | bind to and inhibit human MMP-14 | X | X | X | X | – | – | – | M0038-F01: human antibody (Fab, IgG) that binds and inhibits MMP-14; HC SEQ ID NO: 156, LC SEQ ID NO: 157 (antibody, V domains shown, Synthetically generated peptide) VH: EVQLLESGGGLVQPGGSLRLSCAASGFTFSLYSMNWVRQAPGKGLEWVSSIYSSGGSTLYADSVKGRFTISRDNSKNTLYLQMNSLRAEDTAVYYCARGRAFDIWGQGTMVTVSS VL: QDIQMTQSPSSLSAFVGDKVTITCRASQSVGTYLNWYQQKAGKAPELLIYATSNLRSGVPSRFSGSGSGTDFTLTINTLQPEDFATYYCQQSYSIPRFTFGPGTKVDIK | Y (Inhibition (Y) of activity ranged from approximately 50-80% of the reaction rate observed in the absence of antibody)
bind to human MMP-14 | bind to and inhibit human MMP-14 | – | – | X | – | Y 70% inhibition | Y 94% inhibition | Y 74% inhibition | M0043-G02: human antibody (Fab, IgG) that binds and inhibits MMP-14; HC SEQ ID NO: 166, LC SEQ ID NO: 167 (antibody, V domains shown, Synthetically generated peptide) VH: EVQLLESGGGLVQPGGSLRLSCAASGFTFSWYPMFWVRQAPGKGLEWVSGIYSSGGPTDYADSVKGRFTISRDNSKNTLYLQMNSLRAEDTAVYYCAKDTLGRYYDFWSGYSYGMDVWGQGTTVTVSS VL: QDIQMTQSPGTLSLSPGERATLSCRASQSVSSSYLAWYQQKPGQAPRLLIYGASSRATGIPDRFSGSGSGTDFTLTISRLEPEDFAVYYCQSGVTFGGGTKVEIK | Y (Inhibition (Y) of activity ranged from approximately 50-80% of the reaction rate observed in the absence of antibody)
bind to human MMP-14 | bind to and inhibit human MMP-14 | X | X | X | – | – | – | Y 65% inhibition | M0040-A06: human antibody (Fab, IgG) that binds and inhibits MMP-14; HC SEQ ID NO: 162, LC SEQ ID NO: 163 (antibody, V domains shown, Synthetically generated peptide) VH: EVQLLESGGGLVQPGGSLRLSCAASGFTFSYYGMYWVRQAPGKGLEWVSSISSSGGYTDYADSVKGRFTISRDNSKNTLYLQMNSLRAEDTAVYYCARRIKYYDIEGEGAFDIWGQGTMVTVSS VL: QDIVMTQTPPSLPVNPGEPASISCRSSQSLLHRNGYNYLDWYLQKPGQSPQLLIHLGSYRASGVPDRFSGSGSGTDFTLKISRVEAEDVGVYYCMQPLQTPFTFGPGTKVDIK | Y (Inhibition (Y) of activity ranged from approximately 50-80% of the reaction rate observed in the absence of antibody)

— US8106168B2, “Metalloproteinase binding proteins” (Dyax Corp., priority 2005, dated 2012)
